Measurements as given in IntAct's records for PubMed 31515488.

B1: Rab-like protein 2A (Homo sapiens), Q9UBK7 (parent)
chain: MAEDKTKPSELDQGKYDADDNVKIICLGDSAVGKSKLMERFLMDGFQPQQLSTYALTLYKHTATVDGKTILVDFWDTAGQERFQSMHASYYHKAHACIMVFDIQRKVTYRNLSTWYTELREFRPEIPCIVVANKIDDINVTQKSFNFAKKFSLPLYFVSAADGTNVVKLFNDAIRLAVSYKQNSQDFMDEIFQELENFSLEQEEEDVPDQEQSSSIETPSEEVASPHS
partner: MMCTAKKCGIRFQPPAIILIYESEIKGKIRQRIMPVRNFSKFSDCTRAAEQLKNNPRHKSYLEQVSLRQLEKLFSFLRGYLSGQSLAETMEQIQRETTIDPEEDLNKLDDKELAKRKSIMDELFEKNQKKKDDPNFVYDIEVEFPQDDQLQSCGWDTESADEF
B2: Dynein light chain 2, cytoplasmic (Homo sapiens), Q96FJ2 (parent)
chain: MSDRKAVIKNADMSEDMQQDAVDCATQAMEKYNIEKDIAAYIKKEFDKKYNPTWHCIVGRNFGSYVTHETKHFIYFYLGQVAILLFKSG
partner: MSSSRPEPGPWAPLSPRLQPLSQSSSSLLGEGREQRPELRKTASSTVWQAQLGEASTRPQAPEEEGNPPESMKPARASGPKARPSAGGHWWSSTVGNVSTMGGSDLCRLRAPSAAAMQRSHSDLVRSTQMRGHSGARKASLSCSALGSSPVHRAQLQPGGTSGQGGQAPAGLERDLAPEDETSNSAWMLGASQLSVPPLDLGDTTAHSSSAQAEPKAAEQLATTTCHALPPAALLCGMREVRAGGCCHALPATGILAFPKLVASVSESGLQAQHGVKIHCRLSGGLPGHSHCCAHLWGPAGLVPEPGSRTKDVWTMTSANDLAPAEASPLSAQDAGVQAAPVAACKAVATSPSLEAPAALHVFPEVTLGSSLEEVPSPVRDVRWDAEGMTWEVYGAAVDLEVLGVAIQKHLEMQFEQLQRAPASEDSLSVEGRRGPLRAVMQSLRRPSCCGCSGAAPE
B3: CDK5 regulatory subunit-associated protein 3 (Homo sapiens), Q96JB5 (parent)
chain: MEDHQHVPIDIQTSKLLDWLVDRRHCSLKWQSLVLTIREKINAAIQDMPESEEIAQLLSGSYIHYFHCLRILDLLKGTEASTKNIFGRYSSQRMKDWQEIIALYEKDNTYLVELSSLLVRNVNYEIPSLKKQIAKCQQLQQEYSRKEEECQAGAAEMREQFYHSCKQYGITGENVRGELLALVKDLPSQLAEIGAAAQQSLGEAIDVYQASVGFVCESPTEQVLPMLRFVQKRGNSTVYEWRTGTEPSVVERPHLEELPEQVAEDAIDWGDFGVEAVSEGTDSGISAEAAGIDWGIFPESDSKDPGGDGIDWGDDAVALQITVLEAGTQAPEGVARGPDALTLLEYTETRNQFLDELMELEIFLAQRAVELSEEADVLSVSQFQLAPAILQGQTKEKMVTMVSVLEDLIGKLTSLQLQHLFMILASPRYVDRVTEFLQQKLKQSQLLALKKELMVQKQQEALEEQAALEPKLDLLLEKTKELQKLIEADISKRYSGRPVNLMGTSL
partner: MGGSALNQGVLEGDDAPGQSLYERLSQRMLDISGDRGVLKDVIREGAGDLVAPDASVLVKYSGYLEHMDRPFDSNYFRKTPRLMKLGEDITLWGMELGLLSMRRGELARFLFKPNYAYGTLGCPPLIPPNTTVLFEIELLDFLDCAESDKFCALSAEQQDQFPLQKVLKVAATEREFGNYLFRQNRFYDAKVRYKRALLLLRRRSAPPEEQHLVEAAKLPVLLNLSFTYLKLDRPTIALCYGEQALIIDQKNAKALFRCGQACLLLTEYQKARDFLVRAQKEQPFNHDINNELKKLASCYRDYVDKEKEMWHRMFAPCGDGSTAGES
B4: Keratin-associated protein 12-1 (Homo sapiens), P59990 (parent)
chain: MCHTSCSSGCQPACCAPSPCQASCYIPVGCQSSVCVPVSFKPAVCVPVRCQSSVCVPVSCRPVVYAAPSCQSSGCCQPSCTSVLCRPISCSTPSCC
B5: Protein-lysine N-methyltransferase EEF2KMT (Homo sapiens), Q96G04 (parent)
chain: MAPEENAGTELLLQSFERRFLAARTLRSFPWQSLEAKLRDSSDSELLRDILHKTVKHPVCVKHPPSVKYARCFLSELIKKHEAVHTEPLDELYEALAETLMAKESTQGHRSYLLPSGGSVTLSESTAIISYGTTGLVTWDAALYLAEWAIENPAVFTNRTVLELGSGAGLTGLAICKMCRPRAYIFSDCHSRVLEQLRGNVLLNGLSLEADITAKLDSPRVTVAQLDWDVATVHQLSAFQPDVVIAADVLYCPEAIMSLVGVLRRLAACREHQRAPEVYVAFTVRNPETCQLFTTELGRAGIRWEVEPRHEQKLFPYEEHLEMAMLNLTL
B6: Coiled-coil domain-containing protein 60 (Homo sapiens), Q8IWA6 (parent)
chain: MTKVPATKKLQSSPNSGAVRPFYASENLRQVPDKPMKSIKYMDKEIINLKKDLIRSRFLIQSVKIGRGYFAILREETAKKKKQQQLQKLKEEERNKFQPAEKISEIHYGDTLLSTYDDEKLKTLGARVTRRPFTPIHSCIISPSLTEAHVEPLFRQLCALHWLLEALTIDHTHHTMKPVITCWNPKDPGGSKSTIKKINKDKSMGQKWEHFITAPKTKKFKIPTMRVTNRKPSRRGSTLSLSRASGGSSPQSSMISVNPGSDEPPSVNTQVTSSKDIEDNESSSTKPDEEPLYMNLQKLLEMVREDARRTVTIENGMQRKAPSILSVLKQNKSNSAYKEMQTTLKSSERSSSTSAESHIQPVQKKSKNRTNCDINIHYKSGVCNTMRAKFYSVAQEAGFCLQDKMEILMKRQEERGIQKFRAFVLVSNFQKDIAKMRHHISVVKGDAEEIADHWYFDLLSKLPEDLKNFRPAKKILVKLQKFGENLDLRIRPHVLLKVLQDLRIWELCSPDIAVAIEFVREHIIHMPQEDYISWLQSRINIPIGPYSALR
B7: Notch homolog 2 N-terminal-like protein A (Homo sapiens), Q7Z3S9 (parent)
chain: MCVTYHNGTGYCKCPEGFLGEYCQHRDPCEKNRCQNGGTCVAQAMLGKATCRCASGFTGEDCQYSTSHPCFVSRPCLNGGTCHMLSRDTYECTCQVGFTGKECQWTDACLSHPCANGSTCTTVANQFSCKCLTGFTGQKCETDVNECDIPGHCQHGGTCLNLPGSYQCQCLQGFTGQYCDSLYVPCAPSPCVNGGTCRQTGDFTFECNCLPETVRRGTELWERDREVWNGKEHDEN
partner: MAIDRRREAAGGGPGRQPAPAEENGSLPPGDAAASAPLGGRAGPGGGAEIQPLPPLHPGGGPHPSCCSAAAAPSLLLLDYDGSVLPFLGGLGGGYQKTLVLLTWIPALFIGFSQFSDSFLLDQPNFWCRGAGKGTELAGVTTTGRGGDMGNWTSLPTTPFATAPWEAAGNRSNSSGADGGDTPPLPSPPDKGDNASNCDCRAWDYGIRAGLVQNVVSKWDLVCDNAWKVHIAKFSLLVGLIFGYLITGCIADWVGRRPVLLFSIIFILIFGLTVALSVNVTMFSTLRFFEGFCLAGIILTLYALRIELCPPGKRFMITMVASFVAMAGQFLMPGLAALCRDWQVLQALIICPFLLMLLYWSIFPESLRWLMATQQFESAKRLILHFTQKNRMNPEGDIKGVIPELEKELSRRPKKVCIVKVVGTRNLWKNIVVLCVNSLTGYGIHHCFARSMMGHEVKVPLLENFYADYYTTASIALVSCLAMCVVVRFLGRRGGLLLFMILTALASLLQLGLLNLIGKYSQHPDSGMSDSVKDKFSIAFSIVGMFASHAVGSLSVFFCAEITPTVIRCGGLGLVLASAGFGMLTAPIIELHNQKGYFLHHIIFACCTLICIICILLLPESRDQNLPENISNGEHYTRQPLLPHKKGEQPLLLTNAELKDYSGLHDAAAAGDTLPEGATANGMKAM
B8: L-fucose dehydrogenase (Homo sapiens), Q9BPX1 (parent)
chain: MATGTRYAGKVVVVTGGGRGIGAGIVRAFVNSGARVVICDKDESGGRALEQELPGAVFILCDVTQEDDVKTLVSETIRRFGRLDCVVNNAGHHPPPQRPEETSAQGFRQLLELNLLGTYTLTKLALPYLRKSQGNVINISSLVGAIGQAQAVPYVATKGAVTAMTKALALDESPYGVRVNCISPGNIWTPLWEELAALMPDPRATIREGMLAQPLGRMGQPAEVGAAAVFLASEANFCTGIELLVTGGAELGYGCKASRSTPVDAPDIPS
partner: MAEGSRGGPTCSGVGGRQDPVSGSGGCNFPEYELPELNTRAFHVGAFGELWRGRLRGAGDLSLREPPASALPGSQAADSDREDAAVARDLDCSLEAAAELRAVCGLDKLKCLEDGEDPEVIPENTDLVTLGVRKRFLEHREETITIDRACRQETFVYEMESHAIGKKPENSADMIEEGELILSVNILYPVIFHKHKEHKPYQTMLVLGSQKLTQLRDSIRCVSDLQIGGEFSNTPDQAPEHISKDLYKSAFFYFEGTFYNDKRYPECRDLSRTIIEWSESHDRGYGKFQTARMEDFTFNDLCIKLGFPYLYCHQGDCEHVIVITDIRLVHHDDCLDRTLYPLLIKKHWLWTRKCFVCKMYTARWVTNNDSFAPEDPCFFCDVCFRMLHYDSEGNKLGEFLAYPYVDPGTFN

Variants of: B1
Conditions: with cep19_human CEP19, Q96LK0

Q: How did the “effect of a mutation on the interaction” value turn out when T53M was run?
A: with no effect

Q: With A94T as the variant, how does the “effect of a mutation on the interaction” value read?
A: with no effect

Q: With R82Q as the variant, how does the “effect of a mutation on the interaction” value read?
A: with no effect

Variants of: B2
Conditions: with grin2_human GPRIN2, O60269

Q: N33S was tested. Which “effect of a mutation on the interaction” value did it give?
A: with no effect

Variants of: B3
Conditions: with fkbp6_human FKBP6, O75344

Q: With E173K as the variant, how does the “effect of a mutation on the interaction” value read?
A: with no effect

Variants of: B4
Conditions: with meox2_human MEOX2, P50222
Sequence of meox2_human MEOX2, P50222 (P50222 whole entry): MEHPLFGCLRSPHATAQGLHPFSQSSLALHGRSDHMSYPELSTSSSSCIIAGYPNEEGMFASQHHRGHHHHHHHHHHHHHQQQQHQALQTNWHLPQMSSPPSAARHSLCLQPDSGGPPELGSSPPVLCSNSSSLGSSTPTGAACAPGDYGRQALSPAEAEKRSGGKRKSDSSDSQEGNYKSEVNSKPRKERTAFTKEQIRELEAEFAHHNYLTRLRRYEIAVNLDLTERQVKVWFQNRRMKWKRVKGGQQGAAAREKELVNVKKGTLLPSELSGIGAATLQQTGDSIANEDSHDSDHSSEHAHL

Q: A16T was tested. Which “effect of a mutation on the interaction” value did it give?
A: with no effect

Variants of: B5
Conditions: with prdc1_human PRTFDC1, Q9NRG1
Sequence of prdc1_human PRTFDC1, Q9NRG1 (Q9NRG1 whole entry): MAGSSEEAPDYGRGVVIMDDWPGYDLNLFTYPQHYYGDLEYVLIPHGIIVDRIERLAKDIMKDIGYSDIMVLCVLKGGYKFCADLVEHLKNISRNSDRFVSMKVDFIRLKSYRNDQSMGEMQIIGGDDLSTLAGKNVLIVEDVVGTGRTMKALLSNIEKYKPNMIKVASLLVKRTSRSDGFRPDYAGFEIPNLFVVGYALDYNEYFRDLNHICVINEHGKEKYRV

Q: S123C was tested. Which “effect of a mutation on the interaction” value did it give?
A: with no effect

Variants of: B6
Conditions: with mtus2_human MTUS2, Q5JR59
Sequence of mtus2_human MTUS2, Q5JR59 (Q5JR59 whole entry): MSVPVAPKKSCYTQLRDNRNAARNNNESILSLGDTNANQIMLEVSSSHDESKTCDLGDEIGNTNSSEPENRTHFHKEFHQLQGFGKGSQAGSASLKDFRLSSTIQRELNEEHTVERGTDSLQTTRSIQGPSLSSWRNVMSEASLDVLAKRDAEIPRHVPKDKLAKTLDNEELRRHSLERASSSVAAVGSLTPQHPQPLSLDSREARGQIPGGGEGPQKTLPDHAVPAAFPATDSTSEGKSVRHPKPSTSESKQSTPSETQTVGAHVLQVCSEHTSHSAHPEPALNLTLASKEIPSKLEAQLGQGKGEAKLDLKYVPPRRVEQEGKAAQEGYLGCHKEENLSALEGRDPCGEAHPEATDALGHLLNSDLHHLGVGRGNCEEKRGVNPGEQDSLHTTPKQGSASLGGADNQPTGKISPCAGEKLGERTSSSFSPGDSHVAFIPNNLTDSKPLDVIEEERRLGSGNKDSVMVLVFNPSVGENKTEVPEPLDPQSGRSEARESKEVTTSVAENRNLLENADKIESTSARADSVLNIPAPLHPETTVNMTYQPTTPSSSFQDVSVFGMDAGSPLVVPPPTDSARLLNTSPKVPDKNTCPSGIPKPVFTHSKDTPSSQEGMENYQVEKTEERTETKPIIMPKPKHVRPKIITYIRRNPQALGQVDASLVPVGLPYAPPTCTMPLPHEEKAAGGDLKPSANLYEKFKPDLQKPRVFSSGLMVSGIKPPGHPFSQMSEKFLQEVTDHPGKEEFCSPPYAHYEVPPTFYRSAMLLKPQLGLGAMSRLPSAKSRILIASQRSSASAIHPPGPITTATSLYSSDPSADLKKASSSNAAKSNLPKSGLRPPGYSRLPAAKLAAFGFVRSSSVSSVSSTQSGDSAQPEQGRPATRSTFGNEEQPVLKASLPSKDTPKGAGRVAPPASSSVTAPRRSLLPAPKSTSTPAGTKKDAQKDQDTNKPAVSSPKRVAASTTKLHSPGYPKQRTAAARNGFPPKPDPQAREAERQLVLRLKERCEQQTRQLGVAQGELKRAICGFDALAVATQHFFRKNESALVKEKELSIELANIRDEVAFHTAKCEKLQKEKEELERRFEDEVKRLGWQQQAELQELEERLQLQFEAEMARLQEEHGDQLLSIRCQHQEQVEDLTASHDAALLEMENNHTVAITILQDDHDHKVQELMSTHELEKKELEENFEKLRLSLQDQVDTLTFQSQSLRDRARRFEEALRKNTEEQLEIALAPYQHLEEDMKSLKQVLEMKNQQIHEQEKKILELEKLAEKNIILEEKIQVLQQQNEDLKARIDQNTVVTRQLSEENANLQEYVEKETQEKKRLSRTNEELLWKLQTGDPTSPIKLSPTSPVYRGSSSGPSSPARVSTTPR

Q: For I46V, which “effect of a mutation on the interaction” value is on record?
A: disrupting interaction strength

Variants of: B7
Conditions: with SLC22A23, A1A5C7

Q: With R74Q as the variant, how does the “effect of a mutation on the interaction” value read?
A: with no effect

Q: For A115T, which “effect of a mutation on the interaction” value is on record?
A: with no effect

Variants of: B8
Conditions: with snpc3_human SNAPC3, Q92966

Q: For A56T, which “effect of a mutation on the interaction” value is on record?
A: with no effect
